Source: the Immune Epitope Database (IEDB)

Each sequence was assayed against HLA-A*02:01 (assay: IEDB peptide-MHC binding, purified MHC/competitive/radioactivity; ≥ and ≤ were set here for values at or beyond the usual limits of such assays). Settings: source organism: Bordetella pertussis.
Work on ITSYVGFSV yielded an IC50 of 4.39 µM.
Sequence IVVEAGELV has an IC50 of 9.86 µM.
For RLRKMLYLI, the IC50 was 14.9 µM.
Sequence WVMTDNSNV has an IC50 of 29.2 µM.

What follows are sequences tested against HLA-B*44:03 in the same assay as above. Settings: source organism: Bordetella pertussis.
For GELMAAQVA, the IC50 was 0.572 µM.
Sequence MESNKDIVI has an IC50 of 9.93 µM.

Each sequence was assayed against HLA-B*07:02 in the same assay as above. Settings: source organism: Bordetella pertussis.
Work on CFGKDLKRP yielded an IC50 of 69.6 µM.
In the case of GIVIPPKAL, the IC50 is reported as 69.6 µM.
In the case of LAAGAGLTL, the IC50 is reported as 7.38 µM.
For RPQITDAVT, the IC50 was 16.3 µM.
In the case of RTHGVGASL, the IC50 is reported as 1.58 µM.

These sequences were tested against HLA-B*35:01 in the same assay as above. Settings: source organism: Bordetella pertussis.
With APNALAWAL the IC50 was 6.26 µM.
LFTQQGGAY was tested, and the IC50 was 69.9 µM.
PDAHVPFCF showed an IC50 of 69.9 µM.

What follows are sequences tested against HLA-B*53:01 in the same assay as above. Settings: source organism: Bordetella pertussis.
LAAGAGLTL showed an IC50 of 58.7 µM.
VPVSEHCTV gave an IC50 of 69.9 µM.
